Source: article PMC4227728

Assays:
[1] = molecular target: ErbB2 (as used in the ErbB2 ELISA of the Fab mutants) (human) (UniProt P04626); experiment: ELISA
[2] = molecular target: ErbB2 ECD labeled with an infrared dye (human) (UniProt P04626); experiment: cross-linking

fold reduction of binding against the WT Fab [1] [fold] | percent of ErbB2 ECD cross-linked [2] [%] | Substance
20 | – | Herceptin Fab-AcrK103
– | 80 | Herceptin Fab-VSF92
